Experimental data published in article PMC11074299.

Target: Casp-8^tDED_F122G/L123G mutant (human) (UniProt Q14790)
Assay: crystal structure; FA^FuL_H9G-C8^FGLG-CF^H7G complex; proteins individually expressed in E. coli, complex co-purified by Ni-NTA and SEC (80 mM NaCl, 20 mM Tris pH 8.0); hanging drop, 20 °C; MR-SAD; 3.1 Å; one 1:5:4 complex per asymmetric unit; FADD DD not visible

A stoichiometry N of 5 was found for “Casp-8^tDED_F122G/L123G mutant (from UniProt Q14790 1-185) (domain or fragment)” in this work.
